Data published in the supplement of paper PMC9876800.

Tested on: peptide library, one residue held at a place counted from the S/T acceptor
Assay: relative phosphorylation of the sub-library (ratio to the mean residue at this position); higher = residue favoured
Conditions: human
Outline: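 Human or orthologue kinase constructs, purified and recombinant, were incubated under kinase-specific conditions in 384-well plates with biotinylated degenerate peptide sub-libraries. Each sub-library fixed one residue at one position around a central Ser/Thr. Incubations lasted 90 min with peptides at 50 μM and 50 μM ATP spiked with γ-32P-ATP, after which spots on streptavidin membranes were phosphorimaged and quantified by densitometry. Relative sub-library phosphorylation is a ratio to the mean residue at that position.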

Chain of CDK14, construct: Full length (O94921 whole entry, looked up): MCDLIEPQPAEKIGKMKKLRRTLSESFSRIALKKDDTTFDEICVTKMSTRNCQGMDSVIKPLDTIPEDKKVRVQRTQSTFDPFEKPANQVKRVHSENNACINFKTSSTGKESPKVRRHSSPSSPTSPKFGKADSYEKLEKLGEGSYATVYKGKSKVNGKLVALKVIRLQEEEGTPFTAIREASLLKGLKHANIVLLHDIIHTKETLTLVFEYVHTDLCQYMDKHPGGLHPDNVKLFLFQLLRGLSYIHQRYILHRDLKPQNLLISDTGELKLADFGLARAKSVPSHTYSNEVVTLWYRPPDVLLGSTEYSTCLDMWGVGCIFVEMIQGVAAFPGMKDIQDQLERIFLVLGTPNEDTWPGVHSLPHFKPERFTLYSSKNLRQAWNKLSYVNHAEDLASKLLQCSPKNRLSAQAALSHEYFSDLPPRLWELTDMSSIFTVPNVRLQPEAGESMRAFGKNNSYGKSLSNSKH

CDK14, construct: Full length (from UniProt O94921)
relative phosphorylation
Conditions | at +1 | at +2 | at +3 | at +4 | at -1 | at -2 | at -3 | at -4 | at -5
A fixed | 0.252 | 0.535 | 0.827 | 0.626 | 0.896 | 0.722 | 0.989 | 0.958 | 0.859
D fixed | 0.129 | 0.365 | 0.343 | 0.472 | 0.376 | 0.251 | 0.328 | 0.625 | 0.582
E fixed | 0.123 | 0.292 | 0.266 | 0.344 | 0.366 | 0.258 | 0.438 | 0.592 | 0.521
F fixed | 0.298 | 0.793 | 1.44 | 0.708 | 0.704 | 0.777 | 0.768 | 0.725 | 0.798
G fixed | 1.29 | 0.619 | 0.785 | 1.64 | 2.02 | 0.774 | 1.29 | 1.08 | 1.13
H fixed | 0.294 | 1.19 | 0.793 | 1.08 | 0.835 | 0.972 | 0.974 | 0.978 | 1.34
I fixed | 0.332 | 1.25 | 1.03 | 0.677 | 0.324 | 0.749 | 0.879 | 1.39 | 1.22
K fixed | 0.38 | 2 | 0.937 | 1.84 | 1.44 | 1.14 | 1.09 | 1.59 | 1.78
L fixed | 0.392 | 1.39 | 2.38 | 0.74 | 1.04 | 1.29 | 0.839 | 1.2 | 1.23
M fixed | 0.345 | 1.1 | 1.97 | 0.88 | 1.36 | 1.11 | 0.875 | 0.942 | 1.06
N fixed | 0.247 | 0.858 | 0.6 | 1.04 | 0.873 | 0.701 | 0.75 | 1.19 | 1.15
P fixed | 11.4 | 0.665 | 1.28 | 1.07 | 1.77 | 2.49 | 1.43 | 1.01 | 0.957
Q fixed | 0.286 | 0.854 | 0.772 | 0.935 | 0.863 | 0.794 | 0.756 | 0.843 | 0.822
R fixed | 0.377 | 2.41 | 1.02 | 2.69 | 1.92 | 2.6 | 3 | 1.31 | 1.17
V fixed | 0.305 | 1.05 | 0.764 | 0.582 | 0.421 | 0.724 | 0.753 | 0.717 | 0.71
W fixed | 0.301 | 0.713 | 1.09 | 0.962 | 0.802 | 0.995 | 0.955 | 1.06 | 0.823
Y fixed | 0.257 | 0.92 | 0.698 | 0.714 | 0.984 | 0.648 | 0.884 | 0.78 | 0.865
pThr fixed | 0.511 | 0.842 | 0.801 | 0.524 | 0.457 | 0.755 | 0.839 | 0.879 | 0.885
pTyr fixed | 0.609 | 0.486 | 0.841 | 0.387 | 0.427 | 0.42 | 0.605 | 0.531 | 0.697

SRPK2, construct: Full length (from UniProt P78362)
relative phosphorylation
Conditions | at +1 | at +2 | at +3 | at +4 | at -1 | at -2 | at -3 | at -4 | at -5
A fixed | 0.712 | 1.14 | 0.669 | 0.878 | 0.911 | 1.6 | 0.473 | 0.89 | 1.01
D fixed | 0.338 | 1.38 | 0.556 | 0.992 | 0.577 | 2.3 | 0.364 | 0.723 | 0.669
E fixed | 0.495 | 1.2 | 0.406 | 0.747 | 0.626 | 1.46 | 0.305 | 0.685 | 0.713
F fixed | 0.35 | 1.12 | 0.427 | 0.715 | 0.468 | 0.64 | 0.265 | 0.697 | 0.971
G fixed | 0.597 | 0.77 | 0.921 | 1.16 | 0.901 | 1.11 | 0.363 | 0.818 | 1.12
H fixed | 0.663 | 1.01 | 0.699 | 1.11 | 1.6 | 1.56 | 0.44 | 1.11 | 1.15
I fixed | 0.667 | 0.647 | 0.369 | 0.783 | 0.361 | 0.298 | 0.222 | 0.549 | 0.593
K fixed | 1.6 | 2.02 | 1.29 | 1.51 | 2.2 | 0.995 | 0.918 | 1.71 | 1.75
L fixed | 0.852 | 0.772 | 0.407 | 0.875 | 0.671 | 0.361 | 0.232 | 0.644 | 0.648
M fixed | 0.839 | 0.547 | 0.383 | 0.794 | 0.693 | 0.538 | 0.288 | 0.719 | 0.754
N fixed | 1.11 | 0.934 | 0.666 | 1.02 | 1.09 | 1.22 | 0.354 | 0.988 | 0.999
P fixed | 4.58 | 1.22 | 1.72 | 1.06 | 1.44 | 0.822 | 0.347 | 1.84 | 0.758
Q fixed | 1.08 | 0.939 | 0.687 | 1.07 | 1.66 | 0.714 | 0.528 | 0.956 | 0.834
R fixed | 1.23 | 1.13 | 6.39 | 1.59 | 1.92 | 1.63 | 11 | 2.28 | 2.36
V fixed | 1.07 | 0.976 | 0.442 | 0.815 | 0.726 | 0.449 | 0.246 | 0.696 | 0.769
W fixed | 0.407 | 0.581 | 0.502 | 1.03 | 0.522 | 0.614 | 0.351 | 0.898 | 1.07
Y fixed | 0.412 | 0.618 | 0.474 | 0.863 | 0.629 | 0.695 | 0.319 | 0.794 | 0.829
pThr fixed | 0.513 | 0.839 | 0.67 | 0.956 | 0.411 | 0.555 | 0.363 | 0.65 | 0.55
pTyr fixed | 0.696 | 0.733 | 0.646 | 0.951 | 0.763 | 1.09 | 0.45 | 1.25 | 0.809

RAF1, construct: aa306-648 (from UniProt P04049)
relative phosphorylation
Conditions | at +1 | at +2 | at +3 | at +4 | at -1 | at -2 | at -3 | at -4 | at -5
A fixed | 0.533 | 0.747 | 0.856 | 0.786 | 1.02 | 0.816 | 0.961 | 0.949 | 1.05
D fixed | 0.619 | 0.926 | 0.751 | 0.848 | 1.47 | 0.702 | 0.845 | 1.36 | 1.19
E fixed | 0.992 | 0.886 | 0.697 | 0.864 | 0.969 | 0.718 | 0.898 | 1.24 | 1.29
F fixed | 1.25 | 0.618 | 1.36 | 1.23 | 0.587 | 1.25 | 0.8 | 0.698 | 0.914
G fixed | 0.719 | 1.13 | 1.05 | 0.823 | 1.07 | 0.675 | 1.06 | 1.09 | 0.997
H fixed | 0.672 | 1.08 | 1.06 | 1.13 | 1.52 | 1.29 | 1.08 | 1.13 | 1.18
I fixed | 1.66 | 1.03 | 0.787 | 0.958 | 0.647 | 1.27 | 0.755 | 0.65 | 0.731
K fixed | 0.544 | 1.15 | 0.73 | 0.985 | 1.14 | 0.9 | 1.36 | 1.11 | 1.35
L fixed | 2.37 | 1 | 1.19 | 1.05 | 0.852 | 0.939 | 1.22 | 0.793 | 0.848
M fixed | 1.78 | 0.846 | 0.963 | 0.966 | 1.09 | 1.02 | 1.07 | 0.835 | 0.788
N fixed | 0.692 | 1.32 | 0.999 | 1.08 | 1.29 | 0.784 | 0.832 | 1.27 | 1.13
P fixed | 0.281 | 1.23 | 0.912 | 0.983 | 0.735 | 1.1 | 0.797 | 0.772 | 1.03
Q fixed | 0.762 | 1.22 | 0.892 | 1.06 | 0.93 | 0.846 | 0.996 | 0.878 | 0.86
R fixed | 0.667 | 1.49 | 0.776 | 0.944 | 1.39 | 1.37 | 1.83 | 0.911 | 1.09
V fixed | 0.938 | 1.12 | 0.81 | 0.793 | 0.59 | 1.14 | 0.661 | 0.616 | 0.681
W fixed | 1.44 | 0.58 | 1.61 | 1.3 | 0.805 | 0.932 | 0.94 | 1.91 | 1.02
Y fixed | 1.08 | 0.631 | 1.56 | 1.19 | 0.891 | 1.26 | 0.89 | 0.791 | 0.855
pThr fixed | 1.05 | 1.62 | 0.758 | 0.819 | 0.77 | 1.06 | 1.1 | 1.24 | 0.992
pTyr fixed | 0.626 | 0.898 | 0.911 | 0.692 | 1.61 | 1.72 | 1.07 | 0.994 | 0.98
